“And” between values parts separate entries of the source, which are not always exact repeats. Equal entries are not always repeated.
Key:
[1] = biological target: T1, fibroblast-derived native IFN-β (Homo sapiens, UniProt P01574); conditions: partially purified native interferon; cited from earlier work
T1 construct: host or cells: human fibroblasts (natural producer)

Soybean Agglutinun = biological target: T2, Soybean Agglutinun (soybean, UniProt P05046 33-285, biotinylated (sites not given)); assay: dot blot, probed with biotinylated lectin
T2 construct: Bought biotinylated lectin; also called SBA
T2 sequence (P05046 33-285 limits assumed): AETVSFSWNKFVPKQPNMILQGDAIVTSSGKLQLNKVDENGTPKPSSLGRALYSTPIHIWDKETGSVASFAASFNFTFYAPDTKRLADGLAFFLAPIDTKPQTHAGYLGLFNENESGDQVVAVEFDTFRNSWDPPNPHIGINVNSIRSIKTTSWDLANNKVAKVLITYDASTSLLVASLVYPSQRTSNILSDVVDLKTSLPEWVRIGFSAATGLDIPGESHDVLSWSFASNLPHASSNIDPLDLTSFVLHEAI
Experimental: Finally, IFN-β-1b lot A was tested for binding to biotinylated lectins from Vector Laboratories.

[2] = IFN-β specific activity, assay not stated
EAE = conditions: rodent EAE; cited from earlier work
[3] = system: human amnionic cell line WISH infected with VSV; format: cell-based, vesicular stomatitis virus; conditions: WISH cells infected with VSV, viral plaque reduction
MxA gene = MxA gene induction assay (ICLA); format: cell-based, human
Description: Based on the specific induction of the MxA gene by type I IFNs in cultured human cells (Von Wussow, P. et al. (1990) Eur. J. Immunol. 20:2015-2019; and Simon, A. et al. (1991) J. Interferon Res. 11:215-219), an immunochemiluminometric (“ICLA”) assay was developed by Files, J. G. et al. (1998) J. Interferon Res. 18:1019-1024. The ICLA assay, which is based on the procedure of Oh, S. K. et al. (1994) J. Immunol. Meth. 176:79-91, detects MXa protein in cell lysates using two non-competing anti-MxA monoclonal antibodies, one of which is conjugated with acridinium ester, which is detected in a luminometer. The MxA gene induction ICLA assay procedure used herein is described in detail in Files, J. G. et al. (1998) supra.

T1 sequence (P01574 22-187): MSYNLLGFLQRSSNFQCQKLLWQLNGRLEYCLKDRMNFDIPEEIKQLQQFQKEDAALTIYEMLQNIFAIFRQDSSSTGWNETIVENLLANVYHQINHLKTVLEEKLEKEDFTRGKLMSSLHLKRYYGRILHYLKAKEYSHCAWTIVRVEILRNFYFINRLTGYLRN

## CC(=O)N[C@H]1[C@H]([C@H](O)[C@H](O)CO)OC(O)(C(=O)O)C[C@@H]1O (stereo partly shown) [sialic acid, N-acetylneuraminic acid]
[1]
  effect on antiviral activity of native IFN-β: not

## (N-acetylneuraminosyl)galactosylglucosylceramide [GM3]
[1]
  effect on antiviral activity of native IFN-β: abolished

B1: peak IFN-β-1b (fraction 5) from the Con A Sepharose column (ligand)
chain: MSYNLLGFLQRSSNFQSQKLLWQLNGRLEYCLKDRMNFDIPEEIKQLQQFQKEDAALTIYEMLQNIFAIFRQDSSSTGWNETIVENLLANVYHQINHLKTVLEEKLEKEDFTRGKLMSSLHLKRYYGRILHYLKAKEYSHCAWTIVRVEILRNFYFINRLTGYLRN
notes: Same polypeptide as IFN-β-1b lot A, after Con A Sepharose chromatography removed most of the non-covalently attached carbohydrate; The note on Met1 for m1 applies here too; also called IFN-β-1b lot A further purified by Con A Sepharose column chromatography
Soybean Agglutinun
  binding result: no binding

B2: IFN-β-1b: recombinant human IFN-β expressed in E. coli with Cys17 to Ser17 substitution, 165 amino acids, not glycosylated (SEQ ID NO: 2) (protein, listed as Homo sapiens)
chain: MSYNLLGFLQRSSNFQSQKLLWQLNGRLEYCLKDRMNFDIPEEIKQLQQFQKEDAALTIYEMLQNIFAIFRQDSSSTGWNETIVENLLANVYHQINHLKTVLEEKLEKEDFTRGKLMSSLHLKRYYGRILHYLKAKEYSHCAWTIVRVEILRNFYFINRLTGYLRN
[2]
  specific activity: 2 to 3×10^7 IU/mg and ~3×10^7 IU/mg
EAE
  in vivo efficacy in EAE models: shows in vivo efficacy

B3: peak IFN-β-1b (fraction 5): IFN-β-1b lot A further purified by Con A Sepharose column chromatography, peak fraction 5, carbohydrates largely removed (protein, UniProt P01574 22-187, looked up, variant C17S)
Interferon beta: MSYNLLGFLQRSSNFQSQKLLWQLNGRLEYCLKDRMNFDIPEEIKQLQQFQKEDAALTIYEMLQNIFAIFRQDSSSTGWNETIVENLLANVYHQINHLKTVLEEKLEKEDFTRGKLMSSLHLKRYYGRILHYLKAKEYSHCAWTIVRVEILRNFYFINRLTGYLRN
modifications: interferon beta-1b; deglycosylated fraction
notes: IFN-β-1b lot A further purified by Con A Sepharose column chromatography, peak fraction 5, carbohydrates largely removed
[3]
  specific activity: 3.6×10^7 IU/mg

B4: IFN-β-1aSER17: IFN-β-1a in which Cys17 is replaced by Ser17, expressed in CHO cells, purified by affinity chromatography (protein, UniProt P01574 22-187, looked up, variant C17S)
Interferon beta: MSYNLLGFLQRSSNFQSQKLLWQLNGRLEYCLKDRMNFDIPEEIKQLQQFQKEDAALTIYEMLQNIFAIFRQDSSSTGWNETIVENLLANVYHQINHLKTVLEEKLEKEDFTRGKLMSSLHLKRYYGRILHYLKAKEYSHCAWTIVRVEILRNFYFINRLTGYLRN
MxA gene; PNGase F-mediated deglycosylation, non-reducing or reducing conditions, FIG. 2B
  decrease in specific activity: 30-35%
MxA gene; overnight (18 hours) incubation, FIG. 2B
  effect on specific activity of overnight incubation alone: not adversely affected
MxA gene; product label specific activity of reconstituted IFN-β-1b/Betaseron® as IFN standard, FIG. 2A
  specific activity: 1.3 to 2.4×10^8 IU/mg
MxA gene; reduction in the presence of SDS followed by spontaneous reoxidation, FIG. 2B
  reduction in specific activity: ~20%
